Results on one substance are retold here after US6770739B1, “Enhancers of CFTR chloride channel function” (Case Western Reserve University, priority 1999, dated 2004).

One assay addresses T1, ΔNEG2-CFTR channel (Homo sapiens, UniProt P13569, DEL817-838).
T1 construct: made in house; host or cells: 293-EBNA HEK cells (Invitrogen), transient transfection with pCEP4(ΔNEG2); microsomal membrane vesicles
Nature of the assay: Single channel recording of ΔNEG2-CFTR reconstituted in planar lipid bilayer. The conditions noted are these: 0.44 μM NEG2 peptide, −80 mV, 2 mM ATP, no PKA. Type of assay: biochemical. The text has this:
Single channel measurements indicate that the ΔNEG1-CFTR channel is similar to wt-CFTR in its PKA dependence. No chloride channels are observed in the absence of PKA (FIG. 2A) and the open probability in the presence of PKA and ATP is similar to wt-CFTR. In contrast, the ΔNEG2-CFTR channel opens without PKA (FIG. 2A). The constitutive activity of the ΔNEG2-CFTR channel is unlikely to be due to the endogenous phosphorylation of the ΔNEG2-CFTR protein, since protein phosphatase 2A, which decreases activity of the wt-CFTR opened by PKA and ATP (Ma et al., 1997), has no effect on the ΔNEG2-CFTR channel (n=4).
To test whether the NEG2 region is responsible for both stimulatory and inhibitory interactions between the R domain and other domains, synthetic NEG2, a 22 amino acid peptide, was added to the cis-intracellular side of single CFTR channels captured in the planar lipid bilayer (FIG. 3). […] After peptide addition, there are periods of intense stimulation that last 4 to 8 minutes. These stimulatory periods are followed by either a return to the basal level of activity before peptide addition, or by an almost complete inhibition of the channel, where only a flickery 3 pS conductance is observed. […]

Another assay addresses T2, wt-CFTR channel (Homo sapiens, UniProt P13569).
T2 construct: made in house; host or cells: 293-EBNA HEK cells (Invitrogen), transient transfection with pCEP4(wt); microsomal membrane vesicles
The assay is described as follows: Single channel recording of wt-CFTR reconstituted in planar lipid bilayer. In kind it is biochemical. How it is done:
To test whether the NEG2 region is responsible for both stimulatory and inhibitory interactions between the R domain and other domains, synthetic NEG2, a 22 amino acid peptide, was added to the cis-intracellular side of single CFTR channels captured in the planar lipid bilayer (FIG. 3). […] After peptide addition, there are periods of intense stimulation that last 4 to 8 minutes. These stimulatory periods are followed by either a return to the basal level of activity before peptide addition, or by an almost complete inhibition of the channel, where only a flickery 3 pS conductance is observed.
In order to understand the mechanism responsible for the increase in open probability, the gating kinetics of wt-CFTR without peptide and during stimulation by synthetic NEG2 were analyzed. […] Thus, the increase in the open probability is not due to a change in the closing rate of the channel. However, the closed time distribution for the stimulated channel is clearly shifted to the left compared to the control channel (FIG. 4B). There are three components to the closed state, a fast (τc1), an intermediate (τc2) and a long (τc3) closed component. The fast closed component is probably due to closings within a burst (Carson et al., 1995). Therefore, to identify better the closed times between bursts, a delimiter of τc=40 ms was set at the nadir between the fast and intermediate closed times (illustrated by the arrow in FIG. 4B) to generate the closed-burst duration histograms. […] Thus, the interaction of NEG2 with CFTR increased the intermediate-opening rate of the channel. This increase in opening rate is similar to that observed when the phosphorylated R domain protein (amino acids 645-834) was added to CFTR-ΔR/S660A in excised, inside-out patches (Winter and Welsh, 1997). Additionally, modification of C832, which resides within NEG2, by N-ethylrnaleimide (NEM) results in irreversible stimulation of PKA-phosphorylated CFTR chloride channel activity (Cotten and Welsh, 1997), further emphasizing the importance of NEG2 in CFTR regulation.
A human embryonic kidney cell line (293-EBNA HEK; Invitrogen) was used for transfection and expression of the CFTR proteins (Ma et al., 1997, Ma et al., 1996, Xie et al., 1995). The HEK-293 cell line contains a pCMV-EBNA vector, which constitutively expresses the Epstein-Barr virus nuclear antigen-1 (EBNA-1) gene product and increases the transfection efficiency of Epstein-Barr virus-based vectors. The cells were maintained in Dulbecco's Modified Eagle Medium with 10% FBS and 1% L-glutamine. Geneticin (G418, 250 (g/ml) was added to the cell culture medium to maintain selection of the cells containing the pCMV-EBNA vector. Lipofectamine reagent (Life Technologies, Inc) in Optimem media (serum-free) was used to transfect the HEK-293 cells with pCEP4(wt), pCEP4(ΔNEG1), or pCEP4(ΔNEG2). After 5 hours, serum was added to the media (10% final serum concentration). Twenty-four hours after transfection, the transfection media was replaced with fresh media. The cells were harvested two days after transfection and microsomal membrane vesicles were prepared for single channel measurements in the lipid bilayer reconstitution system.
HEK-293 cells transfected with pCEP4(CFTR) were harvested and homogenized using a combination of hypotonic lysis and Dounce homogenization in the presence of protease inhibitors (Ma et al., 1997, Ma et al., 1996, Xie et al., 1995). Microsomes were collected by centrifugation of postnuclear supernatant (4500×g, 15 min) at 100,000×g for 20 min and resuspended in a buffer containing 250 mM sucrose, 10 mM HEPES, pH 7.2. The membrane vesicles were stored at −75° C. until use.
The 22 amino acid peptide corresponding to NEG2 was custom made by Quality Controlled Biochemicals, Inc. The peptide was resuspended in water to a concentration of 1 mg/ml and pH was adjusted to a physiological range (7.2-7.4) using KOH and HCl. […]

[1] abbreviates: peptide-stimulated, 4.4 μM NEG2 peptide, −80 mV.

A value given as a limit tells only on which side of the number the result lay.

T2 sequence (P13569 whole entry): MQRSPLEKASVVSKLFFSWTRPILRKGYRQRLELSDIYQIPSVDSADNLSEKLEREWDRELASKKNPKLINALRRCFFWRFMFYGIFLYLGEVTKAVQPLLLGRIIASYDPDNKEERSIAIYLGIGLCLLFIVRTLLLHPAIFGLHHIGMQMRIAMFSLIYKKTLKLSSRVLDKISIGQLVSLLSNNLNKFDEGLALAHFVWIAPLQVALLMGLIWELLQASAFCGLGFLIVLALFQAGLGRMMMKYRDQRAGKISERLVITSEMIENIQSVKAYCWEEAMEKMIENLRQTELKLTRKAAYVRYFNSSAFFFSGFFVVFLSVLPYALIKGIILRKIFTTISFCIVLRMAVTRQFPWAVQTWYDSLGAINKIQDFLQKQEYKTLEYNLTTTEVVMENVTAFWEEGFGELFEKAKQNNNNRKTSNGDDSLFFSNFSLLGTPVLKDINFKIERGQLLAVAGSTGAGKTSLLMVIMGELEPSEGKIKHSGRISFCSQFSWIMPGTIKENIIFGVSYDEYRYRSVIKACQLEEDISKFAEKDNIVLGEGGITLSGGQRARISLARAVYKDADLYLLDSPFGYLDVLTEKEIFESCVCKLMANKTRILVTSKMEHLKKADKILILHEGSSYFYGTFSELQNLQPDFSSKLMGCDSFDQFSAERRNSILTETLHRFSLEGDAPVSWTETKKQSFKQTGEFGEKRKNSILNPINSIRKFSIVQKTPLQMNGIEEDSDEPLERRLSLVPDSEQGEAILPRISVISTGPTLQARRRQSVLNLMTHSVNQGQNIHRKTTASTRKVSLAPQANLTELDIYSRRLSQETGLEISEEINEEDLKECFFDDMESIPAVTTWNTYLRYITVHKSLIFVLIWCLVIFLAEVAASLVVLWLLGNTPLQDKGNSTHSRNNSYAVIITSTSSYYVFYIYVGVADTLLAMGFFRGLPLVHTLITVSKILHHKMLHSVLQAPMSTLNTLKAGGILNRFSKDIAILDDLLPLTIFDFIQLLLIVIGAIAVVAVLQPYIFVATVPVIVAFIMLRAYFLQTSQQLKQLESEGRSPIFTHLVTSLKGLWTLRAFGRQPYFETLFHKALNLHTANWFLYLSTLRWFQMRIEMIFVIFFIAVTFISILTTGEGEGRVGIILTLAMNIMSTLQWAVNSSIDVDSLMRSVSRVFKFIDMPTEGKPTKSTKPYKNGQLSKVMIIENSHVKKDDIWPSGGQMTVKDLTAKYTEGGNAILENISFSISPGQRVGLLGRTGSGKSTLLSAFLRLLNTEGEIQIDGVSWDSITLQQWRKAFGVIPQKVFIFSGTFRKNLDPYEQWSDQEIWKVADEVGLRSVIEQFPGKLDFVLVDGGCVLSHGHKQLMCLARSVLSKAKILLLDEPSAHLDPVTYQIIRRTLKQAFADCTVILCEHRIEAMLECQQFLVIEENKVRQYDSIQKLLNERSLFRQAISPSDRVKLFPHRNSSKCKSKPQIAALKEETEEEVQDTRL
T1 sequence (P13569 with tags, fused parts or gaps DEL817-838): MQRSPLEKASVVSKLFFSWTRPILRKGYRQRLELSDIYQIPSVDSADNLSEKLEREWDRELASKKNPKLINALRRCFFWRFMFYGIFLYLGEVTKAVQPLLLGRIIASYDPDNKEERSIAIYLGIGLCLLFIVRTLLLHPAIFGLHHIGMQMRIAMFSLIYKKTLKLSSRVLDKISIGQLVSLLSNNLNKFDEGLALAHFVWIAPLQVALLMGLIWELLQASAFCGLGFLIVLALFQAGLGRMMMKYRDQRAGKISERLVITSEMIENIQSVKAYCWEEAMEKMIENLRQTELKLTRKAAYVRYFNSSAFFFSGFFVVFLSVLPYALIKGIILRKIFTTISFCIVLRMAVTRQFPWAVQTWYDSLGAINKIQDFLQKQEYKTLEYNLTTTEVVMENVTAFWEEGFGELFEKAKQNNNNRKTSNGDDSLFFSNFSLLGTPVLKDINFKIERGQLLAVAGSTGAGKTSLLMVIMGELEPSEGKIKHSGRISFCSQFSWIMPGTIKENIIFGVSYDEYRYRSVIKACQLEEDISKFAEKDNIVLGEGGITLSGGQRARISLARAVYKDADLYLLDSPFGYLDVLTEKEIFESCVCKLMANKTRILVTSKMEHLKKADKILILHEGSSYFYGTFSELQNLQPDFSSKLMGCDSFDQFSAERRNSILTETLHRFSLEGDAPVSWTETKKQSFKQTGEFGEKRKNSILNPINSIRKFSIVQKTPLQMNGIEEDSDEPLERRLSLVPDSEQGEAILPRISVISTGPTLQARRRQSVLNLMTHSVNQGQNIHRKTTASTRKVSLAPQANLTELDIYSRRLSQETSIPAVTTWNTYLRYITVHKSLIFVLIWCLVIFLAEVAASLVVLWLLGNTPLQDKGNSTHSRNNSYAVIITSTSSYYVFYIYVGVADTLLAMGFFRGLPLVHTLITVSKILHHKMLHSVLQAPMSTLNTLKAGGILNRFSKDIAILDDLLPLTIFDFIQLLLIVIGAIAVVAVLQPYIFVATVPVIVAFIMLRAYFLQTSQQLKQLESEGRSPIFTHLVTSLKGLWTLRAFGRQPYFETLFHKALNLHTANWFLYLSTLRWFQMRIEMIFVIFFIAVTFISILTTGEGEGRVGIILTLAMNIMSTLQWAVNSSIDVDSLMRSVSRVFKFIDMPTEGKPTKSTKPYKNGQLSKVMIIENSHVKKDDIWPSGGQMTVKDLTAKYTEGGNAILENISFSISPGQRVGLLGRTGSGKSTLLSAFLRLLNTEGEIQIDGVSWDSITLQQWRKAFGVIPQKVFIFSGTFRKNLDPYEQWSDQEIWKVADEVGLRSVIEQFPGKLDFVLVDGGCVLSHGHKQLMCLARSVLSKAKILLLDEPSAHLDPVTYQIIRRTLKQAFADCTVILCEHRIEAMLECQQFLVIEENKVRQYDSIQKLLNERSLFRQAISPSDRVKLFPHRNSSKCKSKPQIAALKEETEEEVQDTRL

“NEG2 peptide: Synthetic 22 amino acid peptide corresponding to NEG2, amino acids 817-838 of the CFTR R domain (GLEISEEINEEDLKECFFDDME; listed as Homo sapiens)”: the “effect on ΔNEG2-CFTR channel activity” value in the assay with ΔNEG2-CFTR channel was “stimulation is observed”. The “change of open probability during stimulation” value with wt-CFTR channel (peptide added to cis-intracellular side, 2 mM ATP, 50 units PKA/ml) is on record as “more than doubles”. In addition, in the assay with wt-CFTR channel (setting [1]), the “P2, probability of the intermediate closed component” value was 0.957 and the “P3, probability of the long closed component” value stood at 0.043. Besides, the “intermediate closed time τc2” value in the assay with wt-CFTR channel (peptide-stimulated, 4.4 μM NEG2 peptide, −80 mV, closed-burst histogram, delimiter 40 ms) was 105 ms. Further, in the assay with wt-CFTR channel (stimulation in 6 of 7 experiments, cis-intracellular addition), the “concentration at which stimulatory response was observed” value is no less than 0.44 µM. Further, in the assay with wt-CFTR channel (three channels, cis-intracellular addition), the “concentration at which profound inhibition was observed” value is no less than 4.4 µM.
